This sample holds only a part of the variants without activity.
B1: TPR 5TU (parent)
chain: GGAUCUUCUCGAUCUAACAAAAAAGACAAAUCUGCCACAAAGCUUGAGAGCAUCUUCGGAUGCAGAGGCGGCAGCCUUCGGUGGCGCGAUAGCGCCAACGUUCUCAACUAUGACACGCAAAACGCGUGCUCCGUUGAAUGGAGUUUAUCAUG

Variants of: B1
Assay: polymerase ribozyme fitness, log enrichment relative to wild type (log ratio); higher = more active; in vitro selection for triplet polymerase activity
In short: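 A single round of triplicate in vitro selection, including frozen incubation at −7 °C, was applied to PCR-built, transcribed mutant libraries of each subunit of a heterodimeric triplet polymerase ribozyme. Illumina sequencing of input and output libraries retained genotypes with ≥10 input reads and ≥1 read per output. Fitness is the base-2 logarithm of genotype enrichment divided by wild-type enrichment, from inverse-variance-weighted replicate averages.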

Point of comparison: A28G, “polymerase ribozyme fitness (log ratio)” value -2.24. Against it:
- C27U C57A — higher, -0.747
- C27U G68C A89G C93A A110G G136C — lower, ≤ -4.2
- C27U U55A G58C C87U U111C A142U — lower, -4.19
- C27G U55A — lower, -3.74
- A28C A73C U78G G86C A110U A113U A137C A138U — lower, ≤ -4.2
- C27G U56A — lower, -3.69
- A28U C57U G84U G94A A98U C116A A147C — lower, ≤ -4.2
- A28C C54G C79G C85G U145A — lower, ≤ -4.2
- C27U G58C C87A A107U — lower, ≤ -4.2
- A28U A47C G74C C95U A142C C149A — lower, ≤ -4.2
- C27U U33G G68C C69U C76U C95A C103U A110C G133A U139G — lower, ≤ -4.2
- A28U A30C U53G A64U C118U — lower, ≤ -4.2
- A28C C93U — lower, -4.16
- A28U C32U A39U G58U C87U — lower, ≤ -4.2
- A28C U55A C75G — lower, ≤ -4.2
- A28C U61G G67A C69A C93G A113U G124U — lower, ≤ -4.2
- A28U A41C C75U G81A C103G C149G — lower, ≤ -4.2
- C27U A40U G58C G59U G92U — within 0.2 log units, -2.23
- A28U A64G A66U A73U G81U C95U C114U C149A — lower, ≤ -4.2
- C27U A122G — within 0.2 log units, -2.4
- A28G A52C U53C C57U C87A G141A — lower, ≤ -4.2
- A29C A49C C57G C132U — lower, ≤ -4.2
- A28G A138C C149A — lower, ≤ -4.2
- C27U A37C A52C C87U G88C — lower, ≤ -4.2
- C27U C75A G81A G92A U135A — lower, ≤ -4.2
- A28U A29U U61A G81A C93A — lower, ≤ -4.2
- A28G A40G G50A A52G G65U C96U — lower, -3.77
- C27G G92C A142U — lower, ≤ -4.2
- C27U A49C A98G C99A C125U U148C — lower, ≤ -4.2
- C27U G92U G100A A106C G124C A138G — lower, ≤ -4.2
- A28U U53A G81C C95G A107U U139A — lower, ≤ -4.2
- C27U U139A — lower, ≤ -4.2
- A28G A30U C32A C85A C95U A115U — lower, ≤ -4.2
- C27U A39C G83A — lower, ≤ -4.2
- A28C C57U G59A U78G G86A A115U — lower, ≤ -4.2
- A29C C54A G70U — lower, ≤ -4.2
- A29C A52G G83C A106C — lower, ≤ -4.2
- A28U G74A C85U A91U — lower, ≤ -4.2
- A29C C63U G65U U144G — lower, ≤ -4.2
- A28C A64U G84A C85G — lower, ≤ -4.2
- A28G A52U G84A C103A — lower, ≤ -4.2
- A28U G50C C76U C85U C103A C118U U144G — lower, ≤ -4.2
- A28U C79A A91U C108G U130G G143C — lower, ≤ -4.2
- A28C U61A G88A — lower, ≤ -4.2
- A29C A37U G133A — lower, ≤ -4.2
- A29C — lower, -3.73
- C27U U78A C79G A91C C118G — lower, ≤ -4.2
- A28U C32U G42C G84A A89G G92A C131A U148A — lower, ≤ -4.2
- C27G G80A C114A C116U A142C — lower, ≤ -4.2
- A28U G50U G59A — lower, ≤ -4.2
- A28G A49G G50A C87G — lower, ≤ -4.2
- A28C — lower, -3.75
- A28U — lower, -3.38
- A28C G46C G84A C85U C96U C116U C149U — lower, ≤ -4.2
- C27U G34C C93A G117A — lower, ≤ -4.2
- A28U C72U — lower, ≤ -4.2
- A28C A39U C103U C116G U139G — lower, ≤ -4.2
- A28G G46A C85A A91G — lower, ≤ -4.2
- A28U G48U — lower, ≤ -4.2
- C27U A39C G50U C123A — lower, ≤ -4.2
- A28U U44G U82G C87U C114U G133A U146G — lower, ≤ -4.2
- A29C C38G G65U U77A G81C A137G — lower, ≤ -4.2
- A28C A30G C93U C103U — lower, -4.06
- A28U A73U A91G C125A A137C — lower, ≤ -4.2
- C27U C57A A66C G71A C96A U130A — lower, ≤ -4.2
- C27U A37C G59U U61A C63U A64C G92U — lower, ≤ -4.2
- A28G A52C U55C C63A C87U A91U — lower, ≤ -4.2
- C27U G34A A66G A113C A121C — lower, ≤ -4.2
- A28U G62A G65A G94A G136A — lower, ≤ -4.2
- A28C A29U A107U A115G — lower, ≤ -4.2
- A29C A89G C95G U139C G140A G141U A142C — lower, ≤ -4.2
- A28G U31G C36A U56A C95A G141C — lower, -3.69
- A28U A52C A97U A137U U139C — lower, ≤ -4.2
- A28U C54U C63U G71U C108U C114U A137U U139G A150G — lower, ≤ -4.2
- A28U A37C U55A A106C U134G G140A — lower, ≤ -4.2
- C27U C87A — lower, ≤ -4.2
- A28U C87U A119C A138U G140C — lower, ≤ -4.2
- A28U A29C U45A G58C C85U C105U A106G — lower, ≤ -4.2
- A29C C87G G117A — lower, ≤ -4.2
- A28G C116U — lower, -3.63
- C27U C79U C87G U90C C96U A121U U134G — lower, ≤ -4.2
- A29C A49U A91U C118G C149A — lower, ≤ -4.2
- A28C G67A G100C A119G C131U U145G — lower, ≤ -4.2

From the RNAGym collection of RNA variant scans (doi:10.1073/pnas.2313332121)
